Each block holds one molecule with its values, some of them ahead of it.
Columns and labels:
[1] = biological target: CEACAM1 on human CD8+ T cells from the blood of healthy donors (human) (UniProt P13688); assay: flow cytometry on human PBMCs, gated on CD8+ T cells, anti-mouse IgG-APC
CEACAM1 [2] = biological target: T1, CEACAM1 (human, UniProt P13688 35-526, limits assumed); assay: method not stated
T1 construct: also called entire CEACAM1; CD66a
T1 sequence: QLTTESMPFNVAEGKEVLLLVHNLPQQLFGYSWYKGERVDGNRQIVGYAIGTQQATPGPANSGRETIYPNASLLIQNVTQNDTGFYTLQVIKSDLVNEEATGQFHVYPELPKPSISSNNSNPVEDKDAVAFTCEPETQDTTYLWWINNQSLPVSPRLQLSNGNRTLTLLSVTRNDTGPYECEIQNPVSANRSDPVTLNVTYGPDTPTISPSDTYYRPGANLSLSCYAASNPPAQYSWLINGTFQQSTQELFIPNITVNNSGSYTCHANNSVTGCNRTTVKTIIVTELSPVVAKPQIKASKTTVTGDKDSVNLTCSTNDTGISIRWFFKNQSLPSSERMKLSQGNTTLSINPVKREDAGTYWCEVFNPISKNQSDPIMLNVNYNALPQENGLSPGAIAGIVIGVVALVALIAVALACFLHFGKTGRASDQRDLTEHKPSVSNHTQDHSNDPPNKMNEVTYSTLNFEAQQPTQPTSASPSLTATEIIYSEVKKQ

[3] = biological target: CEACAM1 without N-domain (human) (UniProt P13688); assay: sandwich ELISA, CEACAM1dN from CHO transfectants captured by anti-CEA, detection with anti-mouse Ig-HRP
CEACAM1 [4] = biological target: T1, CEACAM1; assay: sandwich ELISA, CEACAM1 from CHO transfectants captured by anti-CEA, detection with anti-mouse Ig-HRP
Protocol: Sandwich ELISA was coated with 0.25 μg/100 microL/well of anti-CEA (Dako). ELISA was washed and remaining binding sites blocked. Subsequently, CEACAM1 or CEACAM1deltaN (therefore CEACAM1 without N-domain, CEACAM1dN) was added thereto. CEACAM1 and CEACAM1deltaN were obtained from CHO transfectants. The ELISA was then incubated with differing antibodies. After 4 hours of incubation, the ELISA was washed and incubated with anti-mouse Ig-HRP. After 1 hour, the substrate TMB was added and the absorption measured at 450 nm.

mean fluorescence intensity [1]: 436 MFI
Molecule: isotype control (antibody)

Kd (CEACAM1 [2]): 26 nM
absorption at 450 nm (mean) (absorption at 450 nm) [3]: 0.053
absorption at 450 nm (mean) (CEACAM1 [4]): 1.3 absorption at 450 nm
B1: anti-human CEACAM1 antibody (clone 18-20) (antibody, V domains shown)
VH: KPGETVKISCKASGYTFTVYGMNWVKQAPGKDLKWMGWINTYTGEPTYADDFKGRFAFSLETSASTAYLQINNLKNEDMATYFCARKAFYRYDGGMDYWGQGTSVTVSS
VL: SSLSASLGGKVTITCKASQDINKFLAWYQHKPGKGPRLLIHYTSTLQPGIPSRFSGSGSGRDYSFSISNLEPEDIATYYCLQYDNLYTFGGGTKLEIK
notes: Mouse monoclonal antibody from a hybridoma; also called antibody 18-20

Kd (CEACAM1 [2]): 23 nM
absorption at 450 nm (mean) (absorption at 450 nm) [3]: 0.066
absorption at 450 nm (mean) (CEACAM1 [4]): 1.09 absorption at 450 nm
B2: anti-human CEACAM1 antibody (clone 6G5J) (antibody, V domains shown)
VH: KPGETVKISCKTSGYIFRNYGMKWVKQAPGKGLKWMGWINTYTGEPTYADDFKGRFAFSLETSASTAYLQINNLKNEDMATYFCARRGMITTSNYALDNWGQGTSVTVSS
VL: SSLSASLGDRVTISCRASQDISNYLNWYQQKPDGTIKLLIYYTSKLHSGVPSRFSGSGSGTDYSLTISNLDQEDIATYFCQQGNTLPWTFGGGTKLEIK
notes: Mouse monoclonal antibody from a hybridoma; also called antibody 6G5J

Kd (CEACAM1 [2]): 10 nM
absorption at 450 nm (mean) (absorption at 450 nm) [3]: 0.91
absorption at 450 nm (mean) (CEACAM1 [4]): 0.62 absorption at 450 nm
B3: anti-human CEACAM1 antibody (clone B3-17) (antibody, V domains shown)
VH: GPELVKPGTSVKMSCKASGYTFTTYVMHWVQQKPGQGLDWIGFFNPYNDGTKYNEKFKGKATLTSDKSSSTAYMELSSLTSEDSAVYYCARWAYDGSYAYWGQGTTLTVSS
VL: SYLSVFLGGRVTITCKASDHINNWLAWYQQKPGNAPRLLISGATSLETGVPSRFSGSGSGKDYTLSIISLQTEDVATYYCQQYWRTPFTFGSGTKLEIK
notes: Mouse monoclonal antibody from a hybridoma; also called antibody B3-17; mAB, B3-17
